B1: Serine/threonine-protein kinase BSK1 (Arabidopsis thaliana (Mouse-ear cress)), Q944A7 (parent)
chain: MGCCQSLFSGDNPLGKDGVQPQPLSQNNHGGATTADNGGSGGASGVGGGGGGGGIPSFSEFSFADLKAATNNFSSDNIVSESGEKAPNLVYKGRLQNRRWIAVKKFTKMAWPEPKQFAEEAWGVGKLRHNRLANLIGYCCDGDERLLVAEFMPNDTLAKHLFHWENQTIEWAMRLRVGYYIAEALDYCSTEGRPLYHDLNAYRVLFDEDGDPRLSCFGLMKNSRDGKSYSTNLAYTPPEYLRNGRVTPESVTYSFGTVLLDLLSGKHIPPSHALDMIRGKNIILLMDSHLEGKFSTEEATVVVELASQCLQYEPRERPNTKDLVATLAPLQTKSDVPSYVMLGIKKQEEAPSTPQRPLSPLGEACSRMDLTAIHQILVMTHYRDDEGTNELSFQEWTQQMKDMLDARKRGDQSFREKDFKTAIDCYSQFIDVGTMVSPTVFGRRSLCYLLCDQPDAALRDAMQAQCVYPDWPTAFYMQSVALAKLNMNTDAADMLNEAAQLEEKRQRGGRGS

Variants of: B1
Conditions: with bri1_arath BRI1, O22476
bri1_arath BRI1, O22476, sequence (O22476 whole entry): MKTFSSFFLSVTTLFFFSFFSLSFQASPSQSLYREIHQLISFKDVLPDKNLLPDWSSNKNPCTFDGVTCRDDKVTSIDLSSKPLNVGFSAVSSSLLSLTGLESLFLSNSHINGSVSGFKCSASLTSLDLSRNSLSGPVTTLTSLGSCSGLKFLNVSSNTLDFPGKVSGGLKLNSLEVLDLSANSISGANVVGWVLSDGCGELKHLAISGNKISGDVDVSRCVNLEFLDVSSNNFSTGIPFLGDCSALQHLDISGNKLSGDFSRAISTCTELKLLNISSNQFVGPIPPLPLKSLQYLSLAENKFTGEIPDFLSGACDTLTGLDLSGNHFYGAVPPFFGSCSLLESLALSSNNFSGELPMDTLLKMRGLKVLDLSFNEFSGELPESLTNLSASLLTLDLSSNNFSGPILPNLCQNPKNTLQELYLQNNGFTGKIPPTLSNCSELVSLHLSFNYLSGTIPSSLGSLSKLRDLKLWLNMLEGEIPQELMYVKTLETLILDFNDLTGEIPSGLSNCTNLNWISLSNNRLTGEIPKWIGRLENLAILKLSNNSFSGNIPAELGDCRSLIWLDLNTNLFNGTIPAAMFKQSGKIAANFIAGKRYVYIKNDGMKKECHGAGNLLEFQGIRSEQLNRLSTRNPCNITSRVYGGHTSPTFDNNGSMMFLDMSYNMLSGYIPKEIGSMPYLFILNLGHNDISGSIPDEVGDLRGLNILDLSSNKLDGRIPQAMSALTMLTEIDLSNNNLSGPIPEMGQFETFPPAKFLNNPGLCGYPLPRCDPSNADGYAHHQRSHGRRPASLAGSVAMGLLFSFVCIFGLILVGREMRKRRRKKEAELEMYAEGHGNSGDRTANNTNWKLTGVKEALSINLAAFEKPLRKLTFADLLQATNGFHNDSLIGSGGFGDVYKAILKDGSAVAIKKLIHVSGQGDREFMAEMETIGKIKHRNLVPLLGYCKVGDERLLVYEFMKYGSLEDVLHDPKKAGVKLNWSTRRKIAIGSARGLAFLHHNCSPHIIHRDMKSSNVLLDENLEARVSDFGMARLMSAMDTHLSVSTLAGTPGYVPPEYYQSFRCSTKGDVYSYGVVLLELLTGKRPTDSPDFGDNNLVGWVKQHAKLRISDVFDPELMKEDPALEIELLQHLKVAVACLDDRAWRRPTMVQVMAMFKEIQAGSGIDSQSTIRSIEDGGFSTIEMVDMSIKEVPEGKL

effect of a mutation on the interaction | Variant
decreasing interaction | S230A
